Literature values as cited in article PMC2803043.

Biological target: Frizzled (Drosophila melanogaster) (UniProt P18537)
Chain of UniProt P18537 (P18537 19-581): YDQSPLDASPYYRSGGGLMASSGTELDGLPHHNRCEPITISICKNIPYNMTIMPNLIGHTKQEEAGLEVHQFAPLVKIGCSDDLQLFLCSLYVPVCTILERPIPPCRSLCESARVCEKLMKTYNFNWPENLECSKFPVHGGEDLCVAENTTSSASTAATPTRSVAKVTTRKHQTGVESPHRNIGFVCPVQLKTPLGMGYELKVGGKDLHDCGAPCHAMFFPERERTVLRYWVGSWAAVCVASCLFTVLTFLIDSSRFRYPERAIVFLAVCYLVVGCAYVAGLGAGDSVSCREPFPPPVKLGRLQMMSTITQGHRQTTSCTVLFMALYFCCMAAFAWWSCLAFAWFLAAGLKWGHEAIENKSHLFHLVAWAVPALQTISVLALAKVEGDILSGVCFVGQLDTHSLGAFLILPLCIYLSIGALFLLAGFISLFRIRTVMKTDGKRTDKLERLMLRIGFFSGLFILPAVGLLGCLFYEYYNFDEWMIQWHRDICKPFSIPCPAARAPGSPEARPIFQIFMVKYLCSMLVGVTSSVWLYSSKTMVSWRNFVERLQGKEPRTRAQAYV

Kd: 10 µM
Substance: Dishevelled PDZ (from UniProt P51140)
